Results as given in paper PMC6053351.

Tests used:
[1] = target: RBBP4 Glu126Ala/Asn128Ala/Glu179Ala (UniProt Q09028); assay: ITC; AEBP2 ZF1–3 titrated into RBBP4; one-site binding model, Origin 7
[2] = target: RBBP4, full-length, wild type (UniProt Q09028); assay: as above
Sequence of RBBP4, full-length, wild type (Q09028 whole entry): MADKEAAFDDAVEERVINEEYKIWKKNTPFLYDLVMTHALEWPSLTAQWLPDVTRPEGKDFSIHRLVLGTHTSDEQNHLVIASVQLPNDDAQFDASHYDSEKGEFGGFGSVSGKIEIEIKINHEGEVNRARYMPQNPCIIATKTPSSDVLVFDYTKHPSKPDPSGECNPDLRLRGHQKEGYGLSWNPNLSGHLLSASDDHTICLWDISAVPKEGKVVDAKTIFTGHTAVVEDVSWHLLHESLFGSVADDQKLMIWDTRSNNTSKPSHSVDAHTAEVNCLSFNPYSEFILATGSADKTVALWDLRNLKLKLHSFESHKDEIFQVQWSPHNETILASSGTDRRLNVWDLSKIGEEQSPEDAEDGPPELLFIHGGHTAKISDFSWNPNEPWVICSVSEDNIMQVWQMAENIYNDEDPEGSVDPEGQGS

Sequence of RBBP4 Glu126Ala/Asn128Ala/Glu179Ala (Q09028 whole entry E126A/N128A/E179A): as the sequence (Q09028 whole entry) above, with E126A, N128A, E179A counted along it

## AEBP2 ZF1–3 (three zinc fingers, residues Asn258–Gln357) (domain or fragment)
[1]
  Kd: 16 µM
[2]
  Kd: 10.1 µM
